Reference: US20230125550A1 (ARCELLX, published 2023)
Substitutions are numbered along the chain they refer to.

T1: recombinant human CD123-Fc (human, UniProt P26951 19-305)
T1 construct: not shown: Fc part of CD123-Fc
T1 sequence: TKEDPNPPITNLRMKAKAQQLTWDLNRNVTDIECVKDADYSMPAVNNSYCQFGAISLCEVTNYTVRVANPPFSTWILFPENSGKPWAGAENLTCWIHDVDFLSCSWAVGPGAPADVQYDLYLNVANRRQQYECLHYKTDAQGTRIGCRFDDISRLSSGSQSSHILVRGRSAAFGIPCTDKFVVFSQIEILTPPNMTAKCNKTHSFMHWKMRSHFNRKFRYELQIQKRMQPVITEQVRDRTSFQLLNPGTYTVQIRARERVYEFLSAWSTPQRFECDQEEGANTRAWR

B1: SEQ ID NO: 460 (designed binder)
chain: MGSWHLFKWTLAEIKYELEALGGSEAELAWFEDDIATFEEELQWYKGKGNPEVEALRKEAAAIRDELQAYRHN
notes: D domain, on phage
B2: SEQ ID NO: 463 (designed binder)
chain: B1 chain with H5E, L6T, W9Y, T10E, Y16D, E17Y, T37E, E40F, W44Y
notes: D domain, on phage
B3: SEQ ID NO: 464 (designed binder)
chain: MGSWNTFKYELAEIKHFLEALGGSEAELAMFEDDIAMFEWELQEYKGKGNPEVEALRKEAAAIRDELQAYRHN
notes: D domain, on phage
B4: SEQ ID NO: 445 (designed binder)
chain: MGSWMFFKEDLADIKWALEALGGSEAELAFFEEEIALFEQHLQQYKGKGNPEVEALRKEAAAIRDELQAYRHN
notes: D domain, on phage
B5: SEQ ID NO: 491 (designed binder)
chain: B4 chain with M5Y, F6I, D13E, W16E, A17E, F30Y, Q40M, H41E, Q44W
notes: D domain, on phage
B6: SEQ ID NO: 477 (designed binder)
chain: B4 chain with M5S, F6W, W16F, A17E, F30W, E33L, E34D, L37D, H41A
notes: D domain, on phage
B7: SEQ ID NO: 481 (designed binder)
chain: MGSWNEFKDDLAMIKMTLEALGGSEAELAWFEHDIAEFEDDLQWYKGKGNPEVEALRKEAAAIRDELQAYRHN
notes: D domain, on phage
B8: SEQ ID NO: 480 (designed binder)
chain: B7 chain with N5E, E6W, D9S, M13S, M16W, T17E, D40E
notes: D domain, on phage
B9: SEQ ID NO: 484 (designed binder)
chain: B7 chain with N5S, E6M, M13E, M16A, T17S, H33D, E37W, W44H
notes: D domain, on phage
B10: SEQ ID NO: 485 (designed binder)
chain: B7 chain with N5Q, E6Y, M13E, T17V, H33A, E37M, W44I
notes: D domain, on phage
B11: SEQ ID NO: 483 (designed binder)
chain: B7 chain with N5S, E6D, M13E, T17I, W30Y, H33N, E37W, W44E
notes: D domain, on phage
B12: SEQ ID NO: 490 (designed binder)
chain: MGSWYDFKYDLAEIKMDLEALGGSEAELAQFEFDIAFFEEELQDYKGKGNPEVEALRKEAAAIRDELQAYRHN
notes: D domain, on phage
B13: SEQ ID NO: 467 (designed binder)
chain: MGSWEFFKEVLAEIKYDLEALGGSEAELAWFETDIAGFEIDLQVYKGKGNPEVEALRKEAAAIRDELQAYRHN
notes: D domain, on phage
B14: SEQ ID NO: 487 (designed binder)
chain: B13 chain with E5M, F6E, V10E, D17I, T33Q, D34S, G37D, I40Y, V44D
notes: D domain, on phage
B15: SEQ ID NO: 468 (designed binder)
chain: B13 chain with E5V, V10D, E13T, Y16N, T33M, D34M, G37D, I40A, V44Y
notes: D domain, on phage
B16: SEQ ID NO: 494 (designed binder)
chain: MGSWDHFKNDLAWIKKHLEALGGSEAELAEFEAVIAYFELYLQGYKGKGNPEVEALRKEAAAIRDELQAYRHN
notes: D domain, on phage
B17: SEQ ID NO: 471 (designed binder)
chain: MGSWFWFKEDLAFIKEDLEALGGSEAELAWFEDGIAFFEWDLQDYKGKGNPEVEALRKEAAAIRDELQAYRHN
notes: D domain, on phage
B18: SEQ ID NO: 489 (designed binder)
chain: B17 chain with F5Y, W6E, E9F, F13E, D17Q, W30L, G34D, W40Y, D44N
notes: D domain, on phage
B19: SEQ ID NO: 473 (designed binder)
chain: B17 chain with F5H, F13I, E16Q, W30T, D33Q, G34W, F37E, D44E
notes: D domain, on phage
B20: SEQ ID NO: 474 (designed binder)
chain: B17 chain with F5N, F13I, E16M, D33H, G34N, F37G, W40F, D41E, D44G
notes: D domain, on phage
B21: SEQ ID NO: 472 (designed binder)
chain: B17 chain with F5Q, F13E, E16H, G34F, F37Q, W40F, D44W
notes: D domain, on phage
B22: SEQ ID NO: 451 (designed binder)
chain: MGSWYWFKQDLAHIKSMLEALGGSEAELAWFEEDIADFESELQEYKGKGNPEVEALRKEAAAIRDELQAYRHN
notes: D domain, on phage
B23: SEQ ID NO: 482 (designed binder)
chain: B7 chain with N5T, E6F, M13E, M16W, T17M, H33S, E37Y, D41E
notes: D domain, on phage
B24: SEQ ID NO: 456 (designed binder)
chain: B22 chain with Q9E, D10E, H13F, S16W, M17E, W30L, D37Y, S40E, E41M
notes: D domain, on phage
B25: SEQ ID NO: 476 (designed binder)
chain: B22 chain with Y5S, H13D, S16I, M17Q, E33W, D37E, S40F, E44D
notes: D domain, on phage
B26: SEQ ID NO: 452 (designed binder)
chain: B22 chain with Y5T, W6F, Q9W, H13D, S16A, M17N, I35L, D37G, S40A
notes: D domain, on phage
B27: SEQ ID NO: 459 (designed binder)
chain: B22 chain with Y5I, W6F, H13E, S16L, M17N, E33D, D37W, E41H, E44D
notes: D domain, on phage
B28: SEQ ID NO: 455 (designed binder)
chain: B1 chain with H5Q, L6T, W9D, T10E, E13H, Y16W, D33W, T37N, W44E
notes: D domain, on phage
B29: SEQ ID NO: 457 (designed binder)
chain: MGSWNSFKDELAEIKAELEALGGSEAELAFFEEDIAWFEEHLQQYKGKGNPEVEALRKEAAAIRDELQAYRHN
notes: D domain, on phage
B30: SEQ ID NO: 458 (designed binder)
chain: B1 chain with H5D, T10E, Y16L, E17G, W30E, D33Y, T37W, E41D, W44D
notes: D domain, on phage
B31: SEQ ID NO: 486 (designed binder)
chain: MGSWSFFKDDLAEIKYFLEALGGSEAELAMFEQTIAEFEYDLQDYKGKGNPEVEALRKEAAAIRDELQAYRHN
notes: D domain, on phage
B32: SEQ ID NO: 495 (designed binder)
chain: MGSWYDFKEDLADIKWMLEALGGSEAELAEFENVIAYFENDLQEYKGKGNPEVEALRKEAAAIRDELQAYRHN
notes: D domain, on phage
B33: SEQ ID NO: 449 (designed binder)
chain: MGSWTYFKDDLADIKQWLEALGGSEAELAFFEIEIAEFEEELQEYKGKGNPEVEALRKEAAAIRDELQAYRHN
notes: D domain, on phage
B34: SEQ ID NO: 448 (designed binder)
chain: B31 chain with S5T, D9N, Y16D, F17W, M30D, Q33W, T34D, D41S, D44E
notes: D domain, on phage
B35: SEQ ID NO: 461 (designed binder)
chain: B3 chain with N5V, Y9D, E13D, H16D, M30F, D33V, M37E, W40A, E44F
notes: D domain, on phage
B36: SEQ ID NO: 446 (designed binder)
chain: B4 chain with M5T, D13G, A17E, F30W, E33D, Q40E, H41E, Q44E
notes: D domain, on phage
B37: SEQ ID NO: 462 (designed binder)
chain: MGSWVYFKDELADIKDFLEALGGSEAELAEFEEDIATFEYDLQWYKGKGNPEVEALRKEAAAIRDELQAYRHN
notes: D domain, on phage
B38: SEQ ID NO: 450 (designed binder)
chain: B33 chain with Y6V, D9Y, Q16W, F30D, I33E
notes: D domain, on phage
B39: SEQ ID NO: 447 (designed binder)
chain: B33 chain with T5V, Y6F, Q16D, W17E, E34A, E37L, E40W
notes: D domain, on phage
B40: SEQ ID NO: 469 (designed binder)
chain: MGSWEEFKEDLAEIKVWLEALGGSEAELAWFEMGIADFEDGLQFYKGKGNPEVEALRKEAAAIRDELQAYRHN
notes: D domain, on phage
B41: SEQ ID NO: 488 (designed binder)
chain: B40 chain with E5A, E6W, W17F, W30E, M33V, G34S, D40Y, G41E, F44D
notes: D domain, on phage
B42: SEQ ID NO: 479 (designed binder)
chain: B40 chain with E5W, V16W, W17F, M33H, G34D, D37K, D40F, G41E, F44Y
notes: D domain, on phage
B43: SEQ ID NO: 470 (designed binder)
chain: B17 chain with F5H, F13N, E16D, D17W, G34N, F37D, W40G, D44V
notes: D domain, on phage
B44: SEQ ID NO: 493 (designed binder)
chain: MGSWQDFKEDLAWIKYELEALGGSEAELAFFEYDIAIFENNLQHYKGKGNPEVEALRKEAAAIRDELQAYRHN
notes: D domain, on phage
B45: SEQ ID NO: 465 (designed binder)
chain: B3 chain with N5Y, T6V, Y9D, H16Q, M30W, M37E, W40T, E41Q, E44H
notes: D domain, on phage
B46: SEQ ID NO: 466 (designed binder)
chain: MGSWIFFKEQLAIIKWELEALGGSEAELAWFEDDIAAFEDDLQFYKGQGNPEVEALRKEAAAIRDELQAYRHN
notes: D domain, on phage
B47: SEQ ID NO: 453 (designed binder)
chain: MGSWSFFKEELANIQVYLEALGGSEAELAWFEEDIADFEEDLQHYKGKGNPEVEALRKEAAAIRDELQAYRHN
notes: D domain, on phage
B48: SEQ ID NO: 454 (designed binder)
chain: B37 chain with V5E, Y6F, D9Y, F17E, E30W, Y40E, D41W, W44G
notes: D domain, on phage
B49: SEQ ID NO: 496 (designed binder)
chain: B13 chain with E5Y, F6M, V10E, E13D, Y16W, D17Y, T33D, I40W, V44A
notes: D domain, on phage
B50: SEQ ID NO: 492 (designed binder)
chain: MGSWVLFKEELAYIKFELEALGGSEAELALFENVIAIFESNLQNYKGKGNPEVEALRKEAAAIRDELQAYRHN
notes: D domain, on phage
B51: SEQ ID NO: 475 (designed binder)
chain: MGSWSWFKEDLAEIKMELEALGGSEAELAYFEWYIAEFEFQLQHYKGKGNPEVEALRKEAAAIRDELQAYRHN
notes: D domain, on phage
B52: SEQ ID NO: 478 (designed binder)
chain: B51 chain with E13S, M16A, E17V, Y30F, W33S, Y34D, F40Q, Q41E, H44Y
notes: D domain, on phage

Target: T1, recombinant human CD123-Fc
Assay: phage ELISA, captured CD123-Fc
Method in brief: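 Readout is the clone-averaged A450 ratio of target-Fc over IgG1-Fc wells, detected with HRP-conjugated anti-M13. Each Fc protein (5 nM) was captured on goat anti-human IgG1-Fc-coated plates. Phage were rescued with VCSM13 from BCMA-panning colonies and added at 5× dilution.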

Binder	ELISA_avg [ratio A450 target/IgG1-Fc]
B1	4
B2	4.4
B3	5
B4	3.2
B5	11.1
B6	6.8
B7	3.5
B8	5.7
B9	5.2
B10	3.6
B11	4.7
B12	3.2
B13	8.2
B14	5
B15	3.1
B16	3.3
B17	13.7
B18	4.6
B19	5.5
B20	3.1
B21	3.8
B22	3.3
B23	3.3
B24	9.4
B25	4
B26	4.8

Binder	ELISA_avg [ratio A450 target/IgG1-Fc]
B27	3.8
B28	5.5
B29	3.3
B30	3.4
B31	10.1
B32	8
B33	4.6
B34	3.9
B35	7.6
B36	7
B37	4.6
B38	3.9
B39	8.8
B40	4.3
B41	3.5
B42	5.1
B43	3.3
B44	3.2
B45	9.9
B46	15
B47	3.8
B48	3.4
B49	7
B50	3.5
B51	4.8
B52	6.9
